Where a chain is given by its changes, count along the chain named. Names may count otherwise. Where two headings read alike, the source gives them in different places. Values belong to the molecule of their own block, whether it stands above or below them.
Columns and labels:
[1] = molecular target: oxidized nDsbD (N-terminal periplasmic globular domain of DsbD, wild type) (E. coli) (UniProt P36655); experiment: SPR
[2] = molecular target: Cys461 (UniProt position 480, LYADWCVACKE); experiment: NMR; settings: reduced cDsbD (Cys461 and Cys464 as free thiols), isolated from nDsbD; cited from earlier work
[3] = molecular target: Asp455 (UniProt position 474, KPVMLDLYADW); settings: isolated domain, cited from earlier work
[4] = molecular target: oxidized D455N/E468Q-cDsbD (E. coli); experiment: NMR titration
[5] = molecular target: oxidized V462A-cDsbD (E. coli); experiment: NMR titration
[6] = molecular target: oxidized cDsbD (C-terminal periplasmic globular domain of DsbD, wild type) (E. coli); experiment: NMR titration
oxidized cDsbD (C-terminal periplasmic globular domain of DsbD, wild type) (E. coli), sequence (P36655 20-565): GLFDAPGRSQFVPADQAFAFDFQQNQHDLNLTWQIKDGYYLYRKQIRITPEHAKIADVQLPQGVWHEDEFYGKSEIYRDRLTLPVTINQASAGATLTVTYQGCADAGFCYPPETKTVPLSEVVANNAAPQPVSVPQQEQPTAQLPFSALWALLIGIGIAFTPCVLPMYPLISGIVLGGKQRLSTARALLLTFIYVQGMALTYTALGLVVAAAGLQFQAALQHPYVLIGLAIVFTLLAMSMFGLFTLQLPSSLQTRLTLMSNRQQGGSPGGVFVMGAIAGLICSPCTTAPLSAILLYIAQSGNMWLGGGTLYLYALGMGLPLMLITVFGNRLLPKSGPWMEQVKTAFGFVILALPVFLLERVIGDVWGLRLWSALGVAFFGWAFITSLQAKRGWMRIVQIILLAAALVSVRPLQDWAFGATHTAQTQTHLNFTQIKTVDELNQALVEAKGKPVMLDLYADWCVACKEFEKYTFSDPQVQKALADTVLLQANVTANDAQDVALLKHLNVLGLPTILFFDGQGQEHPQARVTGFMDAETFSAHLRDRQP

Molecule: Thiol:disulfide interchange protein DsbD, C-terminal periplasmic thioredoxin-like domain (cDsbD) (Escherichia coli)
pKa [2]: 10.5
pKa ([3]; oxidized cDsbD (Cys461-Cys464 disulfide)): 6.6
pKa ([3]; reduced cDsbD (Cys461 and Cys464 as free thiols)): 5.9

B1: oxidized nDsbD (N-terminal periplasmic globular domain of DsbD, wild type) (domain or fragment)
chain: LFDAPGRSQFVPADQAFAFDFQQNQHDLNLTWQIKDGYYLYRKQIRITPEHAKIADVQLPQGVWHEDEFYGKSEIYRDRLTLPVTINQASAGATLTVTYQGCADAGFCYPPETKTVPLSEVVANNAAPQPV
modifications: Cys103-Cys109 disulfide bond (oxidized state)
Kd [4]: 2000 µM
fold weaker than with wild-type cDsbDox [5]: 5 to 10 fold

More lines, now with the values ahead:

Kd [1]: 86 µM
Molecule: C461A-cDsbD (domain or fragment)

Kd [6]: 2400 to 3500 µM
B2: C109A-nDsbD (domain or fragment)
chain: B1 chain with C108A
